Experimental findings from US10590475B2, “Detection of immune cells, in particular T cells through DNA-methylation analysis of the genes CCR6 and BLR1” (Epiontis GmbH, priority 2010, dated 2020) are described below.

The assay relates to CCR6^+CD4^+ memory T cells. The assay is described as follows: CCR6 expression on CCR6+CD4+ memory T cells after TCR stimulation (anti-CD3/anti-CD28 beads). Particulars: six days, TGF-ß 10 ng/ml. Type of assay: cell-based, human. The protocol:
Buffy coats (DRK Blutspendedienst, Berlin, Germany) and peripheral blood samples were obtained from healthy donors after informed consent in accordance with local ethical committee approval. PBMCs were separated with a Ficoll-Hypaque gradient (Sigma-Aldrich). Cell surface antigens were analyzed by single-parameter or multi-parameter fluorescence-activated cell sorter (FACS®, BD Biosciences) analysis using the following monoclonal antibodies: PE-anti-CCR6 (11A9) and Alexa700-anti-CD4 (RPA-T4) (both from BD Biosciences). APC-anti-CD25 (BC96) was purchased from ebioscience. PE-Cy5-anti-CD8 (B9.11), PE-Cy5-anti-CD56 (N901) and FITC-anti-CD25 (B1.49.9) from Beckman Coulter. Antibodies generated in house (DRFZ, Berlin): FITC-anti-CD45RA (4G11), Alexa405-anti-CD4 (TT1) and Alexa405-anti-CD3 (OKT3). In some experiments, CCR6 expression was detected by indirect immunofluorescence using biotinylated CCR6 (11A9, BD Biosciences) followed by staining with APC-conjugated streptavidin (SouthernBiotech). […]
Memory CD4^+CCR6^+ and CD4^+CCR6^− cells were stained with carboxyfluorescein succinimidyl ester (CFSE) and cultured either in CM containing magnetic beads as described above or 10 ng/ml IL-7 and 10 ng/ml IL-15 (R&D Systems). […] At the end of the cultures, cells were analyzed by flow cytometry and used for methylation analyses (see below).

B1: IL-4: cytokine reported to promote TCR-induced CCR6 down-regulation (protein, UniProt P05112 25-153, looked up)
Interleukin-4: HKCDITLQEIIKTLNSLTEQKTLCTELTVTDIFAASKNTTEKETFCRAATVLRQFYSHHEKDTRCLGATAQQFHRHKQLIRFLKRLDRNLWGLAGLNSCPVKEANQSTLENFLERLKTIMREKYSKCSS
As to B1, the “effect on TCR-induced down-regulation of CCR6 expression” value is “promoted”.
